Measurements taken from paper PMC9482650, “Quantitative fragmentomics allow affinity mapping of interactomes” (Nature Communications, 2022).

T1: SNTA1, Q13424
T1 sequence (Q13424 82-180, limits assumed, looked up): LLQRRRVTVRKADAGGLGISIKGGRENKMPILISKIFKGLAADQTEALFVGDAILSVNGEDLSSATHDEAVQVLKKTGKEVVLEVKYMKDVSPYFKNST

T2: NHERF3_1, Q5T2W1
T2 sequence (Q5T2W1 4-100, limits assumed, looked up): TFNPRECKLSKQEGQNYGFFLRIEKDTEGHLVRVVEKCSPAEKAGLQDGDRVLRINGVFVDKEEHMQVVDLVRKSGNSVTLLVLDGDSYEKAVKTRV

T3: RAPGEF6, Q8TEU7
T3 sequence (Q8TEU7 525-625, limits assumed, looked up): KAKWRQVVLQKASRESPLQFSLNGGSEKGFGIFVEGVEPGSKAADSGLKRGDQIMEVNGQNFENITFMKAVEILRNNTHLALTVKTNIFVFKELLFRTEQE

T4: PARD3B_1, Q8TEW8
T4 sequence (Q8TEW8 196-299, limits assumed, looked up): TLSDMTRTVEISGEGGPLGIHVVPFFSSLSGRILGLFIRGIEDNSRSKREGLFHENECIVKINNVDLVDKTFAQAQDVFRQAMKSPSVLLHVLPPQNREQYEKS

T5: MPDZ_12, O75970
T5 sequence (O75970 1857-1958, limits assumed, looked up): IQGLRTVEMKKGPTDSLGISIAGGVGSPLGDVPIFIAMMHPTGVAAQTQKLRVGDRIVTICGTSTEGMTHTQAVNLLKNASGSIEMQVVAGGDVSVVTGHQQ

T6: SNTG1, Q9NSN8
T6 sequence (Q9NSN8 52-150, limits assumed, looked up): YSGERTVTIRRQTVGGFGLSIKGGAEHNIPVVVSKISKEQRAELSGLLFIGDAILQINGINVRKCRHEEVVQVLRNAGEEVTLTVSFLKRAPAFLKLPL

T7: LIN7C, Q9NUP9
T7 sequence (Q9NUP9 88-185, limits assumed, looked up): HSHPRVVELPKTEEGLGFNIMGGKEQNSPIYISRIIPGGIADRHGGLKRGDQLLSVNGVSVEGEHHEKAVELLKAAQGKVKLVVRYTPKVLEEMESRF

T8: MPDZ_10, O75970
T8 sequence (O75970 1624-1722, limits assumed, looked up): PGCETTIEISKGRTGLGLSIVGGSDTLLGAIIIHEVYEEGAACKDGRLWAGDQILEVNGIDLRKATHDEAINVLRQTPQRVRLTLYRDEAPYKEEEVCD

T9: APBA3_1, O96018
T9 sequence (O96018 389-490, limits assumed, looked up): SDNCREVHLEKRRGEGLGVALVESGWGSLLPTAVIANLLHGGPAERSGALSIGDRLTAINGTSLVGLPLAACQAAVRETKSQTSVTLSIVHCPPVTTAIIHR

T10: DFNB31_3, Q9P202
T10 sequence (Q9P202 811-907, limits assumed, looked up): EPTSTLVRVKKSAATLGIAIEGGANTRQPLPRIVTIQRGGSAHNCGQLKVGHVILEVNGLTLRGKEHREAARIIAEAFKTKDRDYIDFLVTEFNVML


Legend:
Test in all cases: holdup assay
Set-up in all cases: key: below the threshold = too weak to quantify, mostly under pKd 3.1 to 4
Conditions in all cases: plain residues with an end cap or a label only (N-terminal biotin on a linker: ado-ado)
GRID2IP_1, A4D2P6 = target: GRID2IP_1, A4D2P6
Chain of GRID2IP_1, A4D2P6 (A4D2P6 1-87): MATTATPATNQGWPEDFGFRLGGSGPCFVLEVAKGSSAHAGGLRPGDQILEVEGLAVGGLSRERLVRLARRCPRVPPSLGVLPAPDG

SNTA1, Q13424 = target: T1, SNTA1, Q13424
IL16_4, Q14005 = target: IL16_4, Q14005
Chain of IL16_4, Q14005 (Q14005 1229-1329): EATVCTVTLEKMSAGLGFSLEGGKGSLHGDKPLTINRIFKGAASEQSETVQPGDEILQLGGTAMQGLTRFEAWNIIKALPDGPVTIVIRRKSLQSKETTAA

DLG2_2, Q15700 = target: DLG2_2, Q15700
MAGI2_2, Q86UL8 = target: MAGI2_2, Q86UL8
Chain of MAGI2_2, Q86UL8 (Q86UL8 410-522): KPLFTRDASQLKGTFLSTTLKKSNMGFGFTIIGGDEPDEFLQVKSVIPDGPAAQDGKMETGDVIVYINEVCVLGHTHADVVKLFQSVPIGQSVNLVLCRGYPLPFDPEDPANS

DLG5_1, Q8TDM6 = target: DLG5_1, Q8TDM6
Chain of DLG5_1, Q8TDM6 (Q8TDM6 617-713): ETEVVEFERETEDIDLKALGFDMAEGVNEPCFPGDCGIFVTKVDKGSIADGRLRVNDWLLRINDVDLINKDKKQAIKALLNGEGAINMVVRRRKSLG

NHERF2_2, Q15599 = target: NHERF2_2, Q15599
Chain of NHERF2_2, Q15599 (Q15599 142-238): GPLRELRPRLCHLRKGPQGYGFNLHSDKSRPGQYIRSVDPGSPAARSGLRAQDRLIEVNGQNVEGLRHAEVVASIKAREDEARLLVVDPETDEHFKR

GOPC, Q9HD26 = target: GOPC, Q9HD26
CASK, O14936 = target: CASK, O14936
Chain of CASK, O14936 (O14936 487-570): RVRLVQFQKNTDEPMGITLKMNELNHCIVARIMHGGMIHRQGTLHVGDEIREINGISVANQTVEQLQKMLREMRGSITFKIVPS

TJP1_3, Q07157 = target: TJP1_3, Q07157
Chain of TJP1_3, Q07157 (Q07157 416-512): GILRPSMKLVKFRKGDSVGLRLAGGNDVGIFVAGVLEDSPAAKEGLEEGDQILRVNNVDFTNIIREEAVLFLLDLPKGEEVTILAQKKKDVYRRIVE

NHERF3_1, Q5T2W1 = target: T2, NHERF3_1, Q5T2W1
RAPGEF6, Q8TEU7 = target: T3, RAPGEF6, Q8TEU7
PARD3B_1, Q8TEW8 = target: T4, PARD3B_1, Q8TEW8
MPDZ_12, O75970 = target: T5, MPDZ_12, O75970
DLG2_3, Q15700 = target: DLG2_3, Q15700
SNTG1, Q9NSN8 = target: T6, SNTG1, Q9NSN8
LIN7C, Q9NUP9 = target: T7, LIN7C, Q9NUP9
Inadl_1, Q8NI35 = target: Inadl_1, Q8NI35
Chain of Inadl_1, Q8NI35 (Q8NI35 113-229): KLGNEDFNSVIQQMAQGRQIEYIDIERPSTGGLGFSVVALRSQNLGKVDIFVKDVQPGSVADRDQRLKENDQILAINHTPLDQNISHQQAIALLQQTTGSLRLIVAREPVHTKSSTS

MPDZ_10, O75970 = target: T8, MPDZ_10, O75970
LDB3, O75112 = target: LDB3, O75112
Chain of LDB3, O75112 (O75112 1-94): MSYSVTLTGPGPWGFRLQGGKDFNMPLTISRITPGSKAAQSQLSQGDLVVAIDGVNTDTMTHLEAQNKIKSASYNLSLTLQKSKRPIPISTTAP

FRMPD4, Q14CM0 = target: FRMPD4, Q14CM0
Chain of FRMPD4, Q14CM0 (Q14CM0 67-160): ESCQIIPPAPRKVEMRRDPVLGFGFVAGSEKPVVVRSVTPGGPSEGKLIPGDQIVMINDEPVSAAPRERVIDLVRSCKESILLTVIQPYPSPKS

APBA3_1, O96018 = target: T9, APBA3_1, O96018
GRIP2_6, Q9C0E4 = target: GRIP2_6, Q9C0E4
Chain of GRIP2_6, Q9C0E4 (Q9C0E4 648-740): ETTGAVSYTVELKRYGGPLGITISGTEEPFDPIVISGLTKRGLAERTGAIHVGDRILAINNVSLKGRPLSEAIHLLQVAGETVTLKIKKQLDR

GIPC2, Q8TF65 = target: GIPC2, Q8TF65
Chain of GIPC2, Q8TF65 (Q8TF65 112-203): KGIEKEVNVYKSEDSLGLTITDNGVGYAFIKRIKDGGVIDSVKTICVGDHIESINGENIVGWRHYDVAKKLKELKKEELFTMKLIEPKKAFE

SCRIB_1, Q14160 = target: SCRIB_1, Q14160
Chain of SCRIB_1, Q14160 (Q14160 718-814): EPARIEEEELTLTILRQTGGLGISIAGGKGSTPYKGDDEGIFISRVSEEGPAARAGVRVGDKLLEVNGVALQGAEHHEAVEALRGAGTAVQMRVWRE

MAGI2_3, Q86UL8 = target: MAGI2_3, Q86UL8
Chain of MAGI2_3, Q86UL8 (Q86UL8 600-682): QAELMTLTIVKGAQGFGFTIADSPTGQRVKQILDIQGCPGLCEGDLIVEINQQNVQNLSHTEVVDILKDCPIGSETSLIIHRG

FRMPD2_2, Q68DX3 = target: FRMPD2_2, Q68DX3
Chain of FRMPD2_2, Q68DX3 (Q68DX3 944-1038): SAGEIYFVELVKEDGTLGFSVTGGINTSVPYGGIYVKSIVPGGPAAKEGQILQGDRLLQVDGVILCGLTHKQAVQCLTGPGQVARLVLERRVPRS

DFNB31_3, Q9P202 = target: T10, DFNB31_3, Q9P202

pKd (GRID2IP_1, A4D2P6)	pKd (SNTA1, Q13424)	pKd (IL16_4, Q14005)	pKd (DLG2_2, Q15700)	pKd (MAGI2_2, Q86UL8)	pKd (DLG5_1, Q8TDM6)	pKd (NHERF2_2, Q15599)	pKd (GOPC, Q9HD26)	pKd (CASK, O14936)	pKd (TJP1_3, Q07157)	pKd (NHERF3_1, Q5T2W1)	pKd (RAPGEF6, Q8TEU7)	pKd (PARD3B_1, Q8TEW8)	pKd (MPDZ_12, O75970)	pKd (DLG2_3, Q15700)	pKd (SNTG1, Q9NSN8)	pKd (LIN7C, Q9NUP9)	pKd (Inadl_1, Q8NI35)	pKd (MPDZ_10, O75970)	pKd (LDB3, O75112)	Binder	other results
below the threshold	below the threshold	below the threshold	below the threshold	3.8	below the threshold	below the threshold	below the threshold	below the threshold	below the threshold	below the threshold	below the threshold	below the threshold	3.56	3.91	below the threshold	3.92	below the threshold	below the threshold	below the threshold	QRPYRRGSEI [KCNJ18, B7U540]	pKd (FRMPD4, Q14CM0): below the threshold; pKd (APBA3_1, O96018): below the threshold; pKd (GRIP2_6, Q9C0E4): below the threshold; pKd (GIPC2, Q8TF65): below the threshold; pKd (SCRIB_1, Q14160): below the threshold; pKd (MAGI2_3, Q86UL8): below the threshold; pKd (FRMPD2_2, Q68DX3): 3.73; pKd (DFNB31_3, Q9P202): 3.83
below the threshold	below the threshold	below the threshold	3.86	4.74	below the threshold	below the threshold	below the threshold	below the threshold	below the threshold	3.75	below the threshold	below the threshold	below the threshold	4.36	below the threshold	below the threshold	below the threshold	below the threshold	below the threshold	NISYRRESAI [KCNJ4, P48050]	pKd (FRMPD4, Q14CM0): below the threshold; pKd (APBA3_1, O96018): below the threshold; pKd (GRIP2_6, Q9C0E4): below the threshold; pKd (GIPC2, Q8TF65): below the threshold; pKd (SCRIB_1, Q14160): 3.89; pKd (MAGI2_3, Q86UL8): below the threshold; pKd (FRMPD2_2, Q68DX3): below the threshold; pKd (DFNB31_3, Q9P202): below the threshold
